Drawing on PMC6092110, “Binding of Dickkopf-3 to CXCR7 Enhances Vascular Progenitor Cell Migration and Degradable Graft Regeneration” (Circulation Research, 2018), this text covers Kd for one molecule.

The target of the assay is T1, CXCR7 (HA tagged) overexpressed in HEK 293T cells (UniProt P56485 1-362).
T1 construct: CXCR7 (C-X-C chemokine receptor type 7), HA tagged, overexpressed from an expression plasmid in HEK 293T cells; source: HEK 293T, transfected, in lysate
Nature of the assay: ELISA; saturation binding: lysates of HEK 293T cells overexpressing the receptor loaded onto high-affinity-binding ELISA plates coated with anti-HA antibody; serial dilutions of AP-conjugated ligand (or AP alone); AP activity read; Scatchard analysis; n=3. To be noted: one partner purified. In general terms: An ELISA detects its analyte on a solid surface through an enzyme-linked reagent.

T1 sequence (P56485 whole entry): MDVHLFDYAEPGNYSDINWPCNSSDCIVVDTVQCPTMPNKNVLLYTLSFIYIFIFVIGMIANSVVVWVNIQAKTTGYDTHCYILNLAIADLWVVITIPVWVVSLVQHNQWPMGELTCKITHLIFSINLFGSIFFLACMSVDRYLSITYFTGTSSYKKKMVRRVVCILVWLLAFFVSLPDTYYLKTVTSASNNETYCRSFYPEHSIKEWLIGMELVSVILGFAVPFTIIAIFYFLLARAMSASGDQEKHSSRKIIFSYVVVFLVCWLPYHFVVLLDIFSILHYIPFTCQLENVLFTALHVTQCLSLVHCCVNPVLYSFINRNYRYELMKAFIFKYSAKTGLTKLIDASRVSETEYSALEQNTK

B1: Dkk3-AP (Dkk3 conjugated with alkaline phosphatase) (ligand)
chain: not shown
The term Kd denotes the concentration at which binding is half-saturated. Low readings indicate higher affinity, high ones lower affinity. The molecule B1 came in with a Kd of 14.1 nM.
